In US12491161B2, “Single vial vaccine formulations” (priority 2013, dated 2025):

Columns and labels:
[1] = Emulsion particle size and polydispersity by dynamic light scattering (DLS); format: physicochemical
Protocol: Emulsion particle size, polydispersity (PdI), and zeta potential were evaluated using dynamic light scattering (DLS) on a Malvern (Worcestershire, UK) Nano-ZS. Measurements were performed generally as previously described (Fox et al., 2011, Pharmaceutical Development and Technology, 16(5):511-519). Briefly, all DLS size measurements were performed in 10^−2 dilutions into 20 nm filtered water (described above) and evaluated in triplicate on single aliquots. For zeta-potential measurements, the same aliquot was evaluated using triplicate measurements and an automatic software determination of the measurement duration between 20 and 40 runs.
Particle size, polydispersity, and zeta potential measurements were made as described previously (Fox et al., 2008, Colloids and Surfaces B: Biointerfaces, 65:98-105) using a Malvern (Worcestershire, UK) Nano-ZS after 100 times dilution into ultrapure water filtered through a 20 nm Whatman (Maidstone, Kent, UK) Anotop plus filter. Nanoparticle tracking analysis was performed with a NanoSight LM10 (Amesbury, UK) with a 405 nm laser and a Hamamatsu Orca Flash 2.8 CMOS camera (Hamamatsu, JP). Samples were diluted 1:105 in 20-nm filtered ultrapure water in three steps. Each sample was diluted and analyzed four times, independently, to account for dilution error. Ninety seconds of video were recorded for each sample with optimized shutter and gain settings. The camera histogram gating was adjusted to maximize sensitivity. Data analysis was performed using NanoSight NTA 2.3 software (Wiltshire, UK) in standard mode.

[2] = Stability under continuous cold-chain maintenance; format: physicochemical; conditions: 4° C.

B1: ID93: recombinant tandem fusion protein antigen of Mtb Rv3619, Rv1813, Rv3620 and Rv2608 (SEQ ID NO: 1 or 2) (protein)
chain: MGSSHHHHHHSSGLVPRGSHMTINYQFGDVDAHGAMIRAQAGSLEAEHQAIISDVLTASDFWGGAGSAACQGFITQLGRNFQVIYEQANAHGQKVQAAGNNMAQTDSAVGSSWAGTHLANGSMSEVMMSEIAGLPIPPIIHYGAIAYAPSGASGKAWHQRTPARAEQVALEKCGDKTCKVVSRFTRCGAVAYNGSKYQGGTGLTRRAAEDDAVNRLEGGRIVNWACNELMTSRFMTDPHAMRDMAGRFEVHAQTVEDEARRMWASAQNISGAGWSGMAEATSLDTMTQMNQAFRNIVNMLHGVRDGLVRDANNYEQQEQASQQILSSVDINFAVLPPEVNSARIFAGAGLGPMLAAASAWDGLAEELHAAAGSFASVTTGLAGDAWHGPASLAMTRAASPYVGWLNTAAGQAAQAAGQARLAASAFEATLAATVSPAMVAANRTRLASLVAANLLGQNAPAIAAAEAEYEQIWAQDVAAMFGYHSAASAVATQLAPIQEGLQQQLQNVLAQLASGNLGSGNVGVGNIGNDNIGNANIGFGNRGDANIGIGNIGDRNLGIGNTGNWNIGIGITGNGQIGFGKPANPDVLVVGNGGPGVTALVMGGTDSLLPLPNIPLLEYAARFITPVHPGYTATFLETPSQFFPFTGLNSLTYDVSVAQGVTNLHTAIMAQLAAGNEVVVFGTSQSATIATFEMRYLQSLPAHLRPGLDELSFTLTGNPNRPDGGILTRFGFSIPQLGFTLSGATPADAYPTVDYAFQYDGVNDFPKYPLNVFATANAIAGILFLHSGLIALPPDLASGVVQPVSSPDVLTTYILLPSQDLPLLVPLRAIPLLGNPLADLIQPDLRVLVELGYDRTAHQDVPSPFGLFPDVDWAEVAADLQQGAVQGVNDALSGLGLPPPWQPALPRLFST
effect of heat stress on particle size ([1]; 50° C. for 30 days): reduced the average particle size observed; however, this was not statistically significant | effect of heat stress on polydispersity ([1]; 50° C. for 30 days, liquid or lyophilized formats): did not affect the polydispersity | particle size (Z-average diameter) ([1]; unstressed): approximately 70 nm | stability under continuous cold-chain maintenance [2]: stable for more than a year
